# Assay results from CN111320685A.
# Values joined by “and” are separate entries in the source; they are usually repeats but may differ in a detail not shown here. Identical values can stand only once.
# Experiments:
# [1] = target: H7N9病毒的HA蛋白(购自ACROBiosystems) (H7N9 influenza virus); assay: ELISA, HA coated, supernatant of transfected 293F cells, anti-human IgG-HRP
# [2] = target: H7N9病毒的HA蛋白(购自ACROBiosystems) (H7N9 influenza virus); assay: BLI (PALL Fortebio), 3F12 captured on protein A sensor, HA antigen in solution
# [3] = target: H7N9病毒 A/Anhui/1/2013 (血凝素HA on virus) (influenza A virus A/Anhui/1/2013 (H7N9)); assay: cell-based or functional assay
binder,measurement,setting,value
"抗H7N9全人源单克隆抗体3F12 (antibody, V domains shown) VH: QVQLVESGAEVKKPGASVKVSCKASGYIFNSYDINWVRQATGQGLEWMGWMTPDSGDNGFAQKFQGRVTMTRNTSITTAYMELSSLTSEDTAVYYCANGTADCSSGGSCYTWFDPWGQGTLVTVSS VL: SSELTQDPAVSVALGQTVRITCQGDRALRSYYASWYQQKPGQAPVLVIYGKTNRPSGIPDRFSGSSSGNTASLTITGAQAEDEADYYCTSRDNSGYHLVFGGGTKLTVLV",OD 450nm,[1],2.31 OD450 and 2.78 OD450 and 2.06 OD450
same,Kd,[2],3.5 nM
same,"中和实验 IC50 (微量中和-ELISA, MDCK细胞)",[3],14.3 µg/mL
